Measurements taken from patent US11918645B2, “Vaccines against hepatitis B virus” (priority 2012, dated 2024).

Each substance was assayed on PBMC from chronic HBV-infected subjects (assay: IFNγ ELISpot of PBMC restimulated with individual unconjugated HBV long peptides (Example 5)). Settings: HBeAg-negative inactive carriers and HBeAg-negative treated subjects; 5 μg/mL, 18 h; FIGS. 9 and 10.
Type: cell-based, human
Procedure: One vial of PBMC from each subject (containing 1×10^7 cells) was thawed and lymphocyte numbers were determined using a Scepter™ automated handheld cell counter. PBMC were cultured in 2 mL culture medium (CM: RPMI-1640 Glutamax supplemented with 5% human AB serum) in 24 well cell culture plates at a concentration of 1×10^6 cells/mL for a total of 11 days. Cells were stimulated with a mixture of the nine HBV-derived long peptides described in Example 3.
Each peptide was used at a final concentration of 1 μg/peptide/mL. On Day 4, IL-2 and IL-15 were added to the cultures to final concentrations of 10 IU/mL and 10 ng/mL respectively. On Day 10, cells were washed twice in CM and cultured with 10 IU/mL IL-2 for 1 additional day. On Day 11, cells were washed twice in CM, counted and incorporated in a human IFNγ (interferon-gamma) ELISpot assay or intracellular cytokine staining.
Cells from short term cultures were plated in triplicate wells at 5×10^4 PBMC/well. Final antigen concentrations used were: 5 μg/mL for each individual peptides; PHA positive control: 1 μg/mL.

| Substance | T cell responses (IFNγ ELISpot), level and frequency of responders |
| --- | --- |
| NP753(K): unconjugated HBV long peptide, core KK + 738-770 (S to T at 743) + KKK (KKKEFGATVELLSFLPSDFFPSVRDLLDTASALYRKKK; HBV CONSENSUS SEQUENCE) | highest level of responses in both patient populations and in the highest proportion of subjects |

Same assay, conditions: genotypes A, B, C & D; FIG. 11

| Substance | T cell responses (IFNγ ELISpot) grouped by infecting HBV genotype |
| --- | --- |
| NP753(K): unconjugated HBV long peptide, core KK + 738-770 (S to T at 743) + KKK (KKKEFGATVELLSFLPSDFFPSVRDLLDTASALYRKKK; HBV CONSENSUS SEQUENCE) | highest responses across all four genotypes A, B, C & D |

Same assay, conditions: three ethnic groups; FIG. 12

| Substance | T cell responses (IFNγ ELISpot) grouped by ethnic background |
| --- | --- |
| NP753(K): unconjugated HBV long peptide, core KK + 738-770 (S to T at 743) + KKK (KKKEFGATVELLSFLPSDFFPSVRDLLDTASALYRKKK; HBV CONSENSUS SEQUENCE) | highest responses across all three ethnic groups |

These substances were tested on HLA-DP4 (α1*01:03;β1*04:01) (assay: ProImmune REVEAL MHC class II binding assay of long peptides). Settings: percentage of the signal of the positive control peptide; positive binding score >=15%.
Set-up: species or system human

| Substance | binding score, HLA-DP4 (α1*01:03;β1*04:01) [%] |
| --- | --- |
| NP753(K): unconjugated HBV long peptide, core KK + 738-770 (S to T at 743) + KKK (KKKEFGATVELLSFLPSDFFPSVRDLLDTASALYRKKK; HBV CONSENSUS SEQUENCE) | 0.65 |

The substances below were run against HLA-A*2402 (Homo sapiens, UniProt P04439, D101N/D140Y/D185E/E176V/E190D/F33S/G103R/G107R/I119L/I121M/I306V/K335N/L105A/L180Q/L300P/N151K/N90K/Q86E/Q94H/R106L/R138H/R89G/T104I/T345S/V100E/W191G/Y123F) (assay: ProImmune REVEAL MHC class I binding assay of nonamers). Settings: score as % of positive control peptide.
Source text: (§1) The number of HLA class I binding registers contained in each peptide may be determined by determining the ability of the peptide to bind to a range of frequently occurring HLA class I molecules. HLA class I binding may be measured using the ProImmune REVEAL® MHC-peptide Binding Assay (ProImmune Ltd, Oxford, UK). The REVEAL™ MHC peptide-binding assay measures the ability of each peptide to stabilize the ternary MHC-peptide complex for […], HLA-A*0201, HLA¬A*0301, HLA-A*2402, HLA-B*0702, HLA-B*0801, HLA-B*3501 representative of main HLA class I supertypes. Each tested peptide is given a score relative to a pass/fail control peptide and also compared to a positive control peptide.
(§2) Detection is based on the presence or absence of the native conformation of the MHC-peptide complex. The highly frequent HLA class I alleles (HLA-A*0201, A*0301, A*1101, A*2402, B*0702, B*0801, and B*3501) were selected. Binding to MHC molecules was compared to that of a known T-cell epitope, a positive control peptide, with very strong binding properties. […] The score of the test peptide is reported quantitatively as a percentage of the signal generated by the positive control peptide, and the peptide is indicated as having a putative pass or fail result. Good binders are considered to be those peptides with scores 45% of the positive control as defined by ProImmune.

| Substance | Number of nonamers having a binding score >= 45%, HLA-A*2402 |
| --- | --- |
| NP753(K): unconjugated HBV long peptide, core KK + 738-770 (S to T at 743) + KKK (KKKEFGATVELLSFLPSDFFPSVRDLLDTASALYRKKK; HBV CONSENSUS SEQUENCE) | 3 |

What follows are substances tested against HLA-B*3501 (Homo sapiens, UniProt P01889, A329T/A93T/A95T/C349S/D201E/D98Y/E176V/E187L/E204Q/E69T/I218V/K202T/L119I/Q94N/R155S/R180L/S121R/S35A/S48A/T118I/V127L/V306I/V36M/Y140S/Y91F) in the same assay as above. Settings: score as % of positive control peptide.
Source text: as §1, §2

| Substance | Number of nonamers having a binding score >= 45%, HLA-B*3501 |
| --- | --- |
| NP753(K): unconjugated HBV long peptide, core KK + 738-770 (S to T at 743) + KKK (KKKEFGATVELLSFLPSDFFPSVRDLLDTASALYRKKK; HBV CONSENSUS SEQUENCE) | 1 |

What follows are substances tested against HLA-B*0801 (Homo sapiens, UniProt P01889, A93T/A95T/D138N/E176V/E187T/K202T/Q94N/R180D/S35A/V36M/Y33D/Y91F) in the same assay as above. Settings: score as % of positive control peptide.
Source text: as §1, §2

| Substance | Number of nonamers having a binding score >= 45%, HLA-B*0801 |
| --- | --- |
| NP753(K): unconjugated HBV long peptide, core KK + 738-770 (S to T at 743) + KKK (KKKEFGATVELLSFLPSDFFPSVRDLLDTASALYRKKK; HBV CONSENSUS SEQUENCE) | 1 |

What follows are substances tested against HLA-A*0201 (Homo sapiens, UniProt P04439, D140Y/D185E/D98H/E176V/E277Q/G131W/G231S/I119V/I121R/I166T/I218V/L300P/L318F/N151K/N90K/P208A/P217A/Q86G/Q94H/R138H/R169H/T345S) in the same assay as above. Settings: score as % of positive control peptide.
Source text: as §1, §2

| Substance | Number of nonamers having a binding score >= 45%, HLA-A*0201 |
| --- | --- |
| NP753(K): unconjugated HBV long peptide, core KK + 738-770 (S to T at 743) + KKK (KKKEFGATVELLSFLPSDFFPSVRDLLDTASALYRKKK; HBV CONSENSUS SEQUENCE) | 3 |

These substances were tested against T1, HLA-A*0301 (Homo sapiens, UniProt P04439) in the same assay as above. Settings: score as % of positive control peptide.
T1 construct: purchased ProImmune
Source text: as §1, §2

| Substance | Number of nonamers having a binding score >= 45%, HLA-A*0301 |
| --- | --- |
| NP753(K): unconjugated HBV long peptide, core KK + 738-770 (S to T at 743) + KKK (KKKEFGATVELLSFLPSDFFPSVRDLLDTASALYRKKK; HBV CONSENSUS SEQUENCE) | 0 |

The substances below were run against T2, HLA-A*1101 (Homo sapiens, UniProt P04439, A114D/D185E/E176A/F33Y/L180Q/S129P/T187R) in the same assay as above. Settings: score as % of positive control peptide.
T2 construct: purchased ProImmune
Source text: as §1, §2

| Substance | Number of nonamers having a binding score >= 45%, HLA-A*1101 |
| --- | --- |
| NP753(K): unconjugated HBV long peptide, core KK + 738-770 (S to T at 743) + KKK (KKKEFGATVELLSFLPSDFFPSVRDLLDTASALYRKKK; HBV CONSENSUS SEQUENCE) | 1 |

What follows are substances tested against T3, HLA-B*0702 (Homo sapiens, UniProt P01889) in the same assay as above. Settings: score as % of positive control peptide.
T3 construct: purchased ProImmune
Source text: as §1, §2

| Substance | Number of nonamers having a binding score >= 45%, HLA-B*0702 |
| --- | --- |
| NP753(K): unconjugated HBV long peptide, core KK + 738-770 (S to T at 743) + KKK (KKKEFGATVELLSFLPSDFFPSVRDLLDTASALYRKKK; HBV CONSENSUS SEQUENCE) | 1 |

Each substance was assayed against T4, HLA-DR15 (α1*01:01;β1*15:01) (Homo sapiens, UniProt P01903+P01911) (assay: ProImmune REVEAL MHC class II binding assay of long peptides). Settings: percentage of the signal of the positive control peptide; positive binding score >=15%.
T4 construct: purchased ProImmune
Source text: (§3) The highly frequent HLA class II alleles HLA-DR1 (α1*01:01;β1*01:01), HLA-DR15 (α1*01:01;β1*15:01), HLA-DR3 (α1*01:01;β1*03:01), HLA-DR4 (α1*01:01;β1*04:01), HLA-DR11 (α1*01:01;β1*11:01), HLA-DR13 (α1*01:01;β1*13:01), and HLA-DR7 (α1*01:01;β1*07:01) were selected. Each peptide was given a score relative to the positive control peptide, which is a known T-cell epitope. The score of the test peptide is reported quantitatively as a percentage of the signal generated by the positive control peptide, and the peptide is indicated as having a putative pass or fail result. Good binders are considered to be those peptides with scores >=15% of the positive control as defined by Proimmune.

| Substance | binding score, HLA-DR15 (α1*01:01;β1*15:01) [%] |
| --- | --- |
| NP753(K): unconjugated HBV long peptide, core KK + 738-770 (S to T at 743) + KKK (KKKEFGATVELLSFLPSDFFPSVRDLLDTASALYRKKK; HBV CONSENSUS SEQUENCE) | 0.00 |

What follows are substances tested against T5, HLA-DR7 (α1*01:01;β1*07:01) (Homo sapiens, UniProt P01903+P01911, A100R/A102G/A103Q/D57E/D86V/E43K/F76Y/K127E/L162R/M171V/P40G/Q125H/Q99D/R195Q/R33Q/R42Y/R54Q/S133A/S149N/S66F/T210M/V115G/Y107V/Y59L/Y89S) in the same assay as above. Settings: percentage of the signal of the positive control peptide; positive binding score >=15%.
T5 construct: purchased ProImmune
Source text: as §3

| Substance | binding score, HLA-DR7 (α1*01:01;β1*07:01) [%] |
| --- | --- |
| NP753(K): unconjugated HBV long peptide, core KK + 738-770 (S to T at 743) + KKK (KKKEFGATVELLSFLPSDFFPSVRDLLDTASALYRKKK; HBV CONSENSUS SEQUENCE) | 0.00 |

The substances below were run on HLA class I alleles (assay: ProImmune REVEAL MHC class I binding assay, summary over the seven alleles). Settings: number of class I alleles for which positive binding was detected.
Set-up: species or system human
Source text: as §1, §2

| Substance | Number of allele (b) |
| --- | --- |
| NP753(K): unconjugated HBV long peptide, core KK + 738-770 (S to T at 743) + KKK (KKKEFGATVELLSFLPSDFFPSVRDLLDTASALYRKKK; HBV CONSENSUS SEQUENCE) | 6 |

Same assay, conditions: total number binding epitopes detected for each long peptide, seven class I alleles

| Substance | Number of HLA binders (a) |
| --- | --- |
| NP753(K): unconjugated HBV long peptide, core KK + 738-770 (S to T at 743) + KKK (KKKEFGATVELLSFLPSDFFPSVRDLLDTASALYRKKK; HBV CONSENSUS SEQUENCE) | 10 |
